Reference: US20190022211A1 (CELLTRION, published 2019)
Values joined by “and” are separate entries in the source; they are usually repeats but may differ in a detail not shown here. Equal entries are not always repeated.

Columns and labels:
Experiment in all cases: cell-based or functional assay
[1] = molecular target: G protein of rabies virus Mongoose PR (Mongoose, Puerto-Rico), on virus (rabies virus)
[2] = molecular target: G protein of rabies virus Myotis (Bat, Washington, USA), on virus (rabies virus)
[3] = molecular target: G protein of EBLV 2 A03-4659 (Genotype 6), on virus (EBLV 2, Genotype 6)
[4] = molecular target: G protein of rabies virus 323R (Dog/Coyote, Texas, USA), on virus (rabies virus)
[5] = molecular target: G protein of ABV (SM 4476) (Australian bat lyssa, Genotype 7), on virus (Australian bat lyssa, Genotype 7)
[6] = molecular target: G protein of rabies virus TXFX (Gray fox, TX), on virus (rabies virus)
[7] = molecular target: G protein of rabies virus TN 132 (Bat, Tennessee, USA), on virus (rabies virus)
[8] = molecular target: G protein of rabies virus DR MX (Bat, Mexico), on virus (rabies virus)
[9] = molecular target: G protein of rabies virus RAC (Raccoon, Georgia, USA), on virus (rabies virus)
[10] = molecular target: G protein of rabies virus Gabon dog (Dog, Gabon), on virus (rabies virus)
[11] = molecular target: G protein of Duvenhage (Genotype 4), on virus (Duvenhage, Genotype 4)
[12] = molecular target: G protein of Wu ABLV (Australian bat lyssa, Genotype 7), on virus (Australian bat lyssa, Genotype 7)
[13] = molecular target: G protein of rabies virus Dog son (Dog, Mexico), on virus (rabies virus)
[14] = molecular target: G protein of rabies virus NC SK (Skunk, Wisconsin, USA), on virus (rabies virus)
[15] = molecular target: G protein of rabies virus AK FX (Arctic Fox, Alaska, USA), on virus (rabies virus)
[16] = molecular target: G protein of rabies virus phi dog (Human/dog, Philippines), on virus (rabies virus)
[17] = molecular target: G protein of EBLV 2 A09-3483 (Genotype 6), on virus (EBLV 2, Genotype 6)
[18] = molecular target: T1, G protein of rabies virus ERA, on virus (rabies virus, UniProt P03524 20-524)
T1 sequence: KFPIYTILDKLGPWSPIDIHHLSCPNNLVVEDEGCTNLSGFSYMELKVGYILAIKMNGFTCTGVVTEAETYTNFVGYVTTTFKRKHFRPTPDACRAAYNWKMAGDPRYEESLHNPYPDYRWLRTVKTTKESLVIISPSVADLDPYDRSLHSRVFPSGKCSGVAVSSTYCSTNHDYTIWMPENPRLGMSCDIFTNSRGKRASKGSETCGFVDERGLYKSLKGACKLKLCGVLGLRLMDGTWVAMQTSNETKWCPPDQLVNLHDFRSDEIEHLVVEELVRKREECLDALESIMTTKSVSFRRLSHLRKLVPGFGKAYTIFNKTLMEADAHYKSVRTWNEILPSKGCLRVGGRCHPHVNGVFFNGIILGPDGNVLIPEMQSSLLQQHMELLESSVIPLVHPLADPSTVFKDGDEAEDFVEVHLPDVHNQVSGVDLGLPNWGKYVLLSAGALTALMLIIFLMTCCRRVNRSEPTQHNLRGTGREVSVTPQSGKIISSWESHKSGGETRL

[19] = molecular target: G protein of rabies virus TX SK 4384 (Skunk, Texas, USA), on virus (rabies virus)
[20] = molecular target: G protein of rabies virus RVHN (Human (ex, wolf), Russia, Arctic), on virus (rabies virus)
[21] = molecular target: G protein of rabies virus AZ Bat (Bat, Arizona), on virus (rabies virus)
[22] = molecular target: G protein of rabies virus Sri Lanka (Cow, Sri Lanka), on virus (rabies virus)
[23] = molecular target: G protein of rabies virus 3860 CA Bat (Bat, California, USA), on virus (rabies virus)
[24] = molecular target: G protein of rabies virus Bat Ef (Bat, Pennsylvania, USA), on virus (rabies virus)
[25] = molecular target: G protein of EBLV 1 A09-3485 (Genotype 5), on virus (EBLV 1, Genotype 5)
[26] = molecular target: G protein of rabies virus Dog Tun (Dog, Tunisia), on virus (rabies virus)
[27] = molecular target: G protein of rabies virus Gray FX-AZ (AZ fox) (Gray Fox, Arizona, USA), on virus (rabies virus)

B1: antibody 2 (antibody, V domains shown)
VH: EVQLVESGAEVKKPGASVKVSCKASGYTFTSYDISWVRQAPGQGLEWMGWISTYKGNTNFAQKFQDRVTLTTDTSTTTAYMELRSLTSDDTAVYYCARAKSHPFYDFWSAYYVPGAFDIWGQGTVVTVSS
VL: not shown
[1]
  neutralizing activity (RFFIT): 0.4 IU/mL and 2000 IU/mg
  neutralizing activity (RFFIT), Titer: 56
[2]
  neutralizing activity (RFFIT): 2 IU/mL and 10000 IU/mg
  neutralizing activity (RFFIT), Titer: 280
[3]
  neutralizing activity (RFFIT): 3.11 IU/mL and 15600 IU/mg
  neutralizing activity (RFFIT), Titer: 280
[4]
  neutralizing activity (RFFIT): 3.47 IU/mL and 17400 IU/mg
  neutralizing activity (RFFIT), Titer: 625
[5]
  neutralizing activity (RFFIT): 1.56 IU/mL and 7780 IU/mg
  neutralizing activity (RFFIT), Titer: 210
[6]
  neutralizing activity (RFFIT): 1.85 IU/mL and 9260 IU/mg
  neutralizing activity (RFFIT), Titer: 250
[7]
  neutralizing activity (RFFIT): 10 IU/mL and 50000 IU/mg
  neutralizing activity (RFFIT), Titer: 280
[8]
  neutralizing activity (RFFIT): 1.7 IU/mL and 1710 IU/mg
  neutralizing activity (RFFIT), Titer: 180
[9]
  neutralizing activity (RFFIT): 1.07 IU/mL and 5370 IU/mg
  neutralizing activity (RFFIT), Titer: 145
[10]
  neutralizing activity (RFFIT): 1.06 IU/mL and 5310 IU/mg
  neutralizing activity (RFFIT), Titer: 170
[11]
  neutralizing activity (RFFIT): 7.2 IU/mL and 36000 IU/mg
  neutralizing activity (RFFIT), Titer: 180
[12]
  neutralizing activity (RFFIT): 0.68 IU/mL and 3380 IU/mg
  neutralizing activity (RFFIT), Titer: 440
[13]
  neutralizing activity (RFFIT): 8.8 IU/mL and 8800 IU/mg
  neutralizing activity (RFFIT), Titer: 1100
[14]
  neutralizing activity (RFFIT): 2.16 IU/mL and 2160 IU/mg
  neutralizing activity (RFFIT), Titer: 270
[15]
  neutralizing activity (RFFIT): 2 IU/mL and 10000 IU/mg
  neutralizing activity (RFFIT), Titer: 270
[16]
  neutralizing activity (RFFIT): 1.04 IU/mL and 5180 IU/mg
  neutralizing activity (RFFIT), Titer: 280
[17]
  neutralizing activity (RFFIT): 5.56 IU/mL and 27800 IU/mg
  neutralizing activity (RFFIT), Titer: 125
[18]
  neutralizing activity (RFFIT): 1.79 IU/mL and 8930 IU/mg
  neutralizing activity (RFFIT), Titer: 250
[19]
  neutralizing activity (RFFIT): 3570 IU/mg and 0.71 IU/mL
  neutralizing activity (RFFIT), Titer: 250
[20]
  neutralizing activity (RFFIT): 0.31 IU/mL and 1560 IU/mg
  neutralizing activity (RFFIT), Titer: 42
[21]
  neutralizing activity (RFFIT): 11.3 IU/mL and 11300 IU/mg
  neutralizing activity (RFFIT), Titer: 1300
[22]
  neutralizing activity (RFFIT): 0.4 IU/mL and 2000 IU/mg
  neutralizing activity (RFFIT), Titer: 50
[23]
  neutralizing activity (RFFIT): 1.5 IU/mL and 7500 IU/mg
  neutralizing activity (RFFIT), Titer: 210
[24]
  neutralizing activity (RFFIT): 1.05 IU/mL and 5260 IU/mg
  neutralizing activity (RFFIT), Titer: 50
[25]
  neutralizing activity (RFFIT): 6.67 IU/mL and 33300 IU/mg
  neutralizing activity (RFFIT), Titer: 180
[26]
  neutralizing activity (RFFIT): 2.7 IU/mL and 2700 IU/mg
  neutralizing activity (RFFIT), Titer: 270
[27]
  neutralizing activity (RFFIT): 5.67 IU/mL and 28300 IU/mg
  neutralizing activity (RFFIT), Titer: 170

B2: antibody 1 (antibody, V domains shown)
VH: VQLLQESGPGLAKPSETLSLICTVSGGSISRRRDYWGWIRQPPGRGLEWIGSFFHRGSTYYNPSLESRVSISVDPSKNQFSLHLSSVTVADTAVYYCARHPSTPFAEYLLLPDAFDSWGQGTLVTVSS
VL: DIVMTQSPATLSVSPGERATLSCRASQSVRSSLAWYQQRPGQAPRLLISGASTRATDIPARLSGSGSGTEFTLTVSSLQSEDFAVYYCQQYSDWPLTFGGGTKVEIKR
[1]
  neutralizing activity (RFFIT): 0.39 IU/mL and 1930 IU/mg
  neutralizing activity (RFFIT), Titer: 54
[2]
  neutralizing activity (RFFIT): 1.64 IU/mL and 8210 IU/mg
  neutralizing activity (RFFIT), Titer: 230
[3]
  neutralizing activity (RFFIT): 0.6 IU/mL and 3000 IU/mg
  neutralizing activity (RFFIT), Titer: 54
[4]
  neutralizing activity (RFFIT): 0.33 IU/mL and 1670 IU/mg
  neutralizing activity (RFFIT), Titer: 60
[5]
  neutralizing activity (RFFIT): 0.4 IU/mL and 2000 IU/mg
  neutralizing activity (RFFIT), Titer: 54
[6]
  neutralizing activity (RFFIT): 0.41 IU/mL and 2070 IU/mg
  neutralizing activity (RFFIT), Titer: 56
[7]
  neutralizing activity (RFFIT): 2 IU/mL and 10000 IU/mg
  neutralizing activity (RFFIT), Titer: 56
[8]
  neutralizing activity (RFFIT): 2.4 IU/mL and 2380 IU/mg
  neutralizing activity (RFFIT), Titer: 250
[9]
  neutralizing activity (RFFIT): 0.7 IU/mL and 3520 IU/mg
  neutralizing activity (RFFIT), Titer: 95
[10]
  neutralizing activity (RFFIT): 0.41 IU/mL and 2030 IU/mg
  neutralizing activity (RFFIT), Titer: 65
[11]
  neutralizing activity (RFFIT): 0.44 IU/mL and 2200 IU/mg
  neutralizing activity (RFFIT), Titer: 13
[12]
  neutralizing activity (RFFIT): 0.38 IU/mL and 1920 IU/mg
  neutralizing activity (RFFIT), Titer: 250
[13]
  neutralizing activity (RFFIT): 2.7 IU/mL and 2720 IU/mg
  neutralizing activity (RFFIT), Titer: 340
[14]
  neutralizing activity (RFFIT): 2.24 IU/mL and 2240 IU/mg
  neutralizing activity (RFFIT), Titer: 280
[15]
  neutralizing activity (RFFIT): 0.44 IU/mL and 2220 IU/mg
  neutralizing activity (RFFIT), Titer: 60
[16]
  neutralizing activity (RFFIT): 0.28 IU/mL and 1390 IU/mg
  neutralizing activity (RFFIT), Titer: 75
[17]
  neutralizing activity (RFFIT): 2.22 IU/mL and 11100 IU/mg
  neutralizing activity (RFFIT), Titer: 50
[18]
  neutralizing activity (RFFIT): 0.36 IU/mL and 1790 IU/mg
  neutralizing activity (RFFIT), Titer: 50
[19]
  neutralizing activity (RFFIT): 1070 IU/mg and 0.21 IU/mL
  neutralizing activity (RFFIT), Titer: 75
[20]
  neutralizing activity (RFFIT): 0.4 IU/mL and 2000 IU/mg
  neutralizing activity (RFFIT), Titer: 54
[21]
  neutralizing activity (RFFIT): 1.1 IU/mL and 1090 IU/mg
  neutralizing activity (RFFIT), Titer: 125
[22]
  neutralizing activity (RFFIT): 0.43 IU/mL and 2160 IU/mg
  neutralizing activity (RFFIT), Titer: 54
[23]
  neutralizing activity (RFFIT): 0.4 IU/mL and 2000 IU/mg
  neutralizing activity (RFFIT), Titer: 56
[24]
  neutralizing activity (RFFIT): 1.05 IU/mL and 5260 IU/mg
  neutralizing activity (RFFIT), Titer: 50
[25]
  neutralizing activity (RFFIT): 1.85 IU/mL and 9260 IU/mg
  neutralizing activity (RFFIT), Titer: 50
[26]
  neutralizing activity (RFFIT): 2.3 IU/mL and 2300 IU/mg
  neutralizing activity (RFFIT), Titer: 230
[27]
  neutralizing activity (RFFIT): 0.53 IU/mL and 2670 IU/mg
  neutralizing activity (RFFIT), Titer: 16
